# Tests used:
# Test in all cases: filter
# Spike RBD (SARS-CoV-2) = Spike RBD (SARS-CoV-2) (UniProt P0DTC2); conditions: P=Nap-dU
# Spike S1 (SARS-CoV-2) = Spike S1 (SARS-CoV-2) (UniProt P0DTC2); conditions: P=Nap-dU
# [1] = target: Spike S2 ECD (SARS-CoV-2) (UniProt P0DTC2); conditions: Y=Tyr-dU, p=Nap-dC
# [2] = target: Spike S1 & S2 ECD (SARS-CoV-2) (UniProt P0DTC2)
# [3] = printed GCATCGGAAPGAAPGPCPGCCPPGCACPGGPGCGGPCCGAPPGPGAGGGA [Nap-dU at 10,14,16,18,22,23,28,31,36,41,42,44]
# [4] = printed GCATCAPCPCCCAGCPAAPGAGPGPCPGAAPPGGACPGGPCCPCPGGGGA [7,9,16,19,23,25,27,31,32,37,40,43,45]
# [5] = Y=Tyr-dU, p=Nap-dC, SB18T0.01, 37 C
sequence,measurement,setting,value
GCATCGGAATGAATGTCTGCCTTGCACTGGTGCGGTCCGATTGTGAGGGA [26860-16_3 (SL1108)],Kd,Spike RBD (SARS-CoV-2); [3],0.061 nM
same,Kd,Spike S1 (SARS-CoV-2); [3],0.48 nM
CCTTGTGCAACGCACCTTATTCGGCTTGAATGTGAGAAGG [26876-13_4 (SL1115)],Kd,"[1]; printed CCTTGYGpAApGpAppYYAYYpGGpYYGAAYGYGAGAAGG [Nap-dC: 8,11,13,15,16,22,25, Tyr-dU: 6,17,18,20,21,26,27,31,33]",0.19 nM
CCTTGCAGGCGGCACATGGCACTTCATATCGAGCGGAAGG [26876-3_4 (SL1114)],Kd,"[1]; printed CCTTGpAGGpGGpApAYGGpApYYpAYAYpGAGpGGAAGG [Nap-dC: 6,10,13,15,20,22,25,30,34, Tyr-dU: 17,23,24,27,29]",0.37 nM
GCATCATCTCCCAGCTAATGAGTGTCTGAATTGGACTGGTCCTCTGGGGA [26860-75_3 (SL1107)],Kd,Spike RBD (SARS-CoV-2); [4],0.23 nM
same,Kd,Spike S1 (SARS-CoV-2); [4],2.8 nM
GGGANANNANGNGNNNGANNGNNNGGANG [26874-29_52],Kd,"[2]; Y=Tyr-dU, p=Nap-dC, position 14 FBn-dU, Kd/Kd_20 0.27",0.11 nM
GGGANANNANGNGNNNGANNGNNNGGANG [26874-29_66],Kd,"[2]; PBndU at 5, other dU Tyr-dU, dC Nap-dC, SB18T0.01, 37 C",0.19 nM
GGGANANNANGNGNNNGANNGNNNGGANG [26874-29_70],Kd,"[2]; PBndU at 10 (printed sequence lacks Y at 10, F^ in place), other dU Tyr-dU, dC Nap-dC, SB18T0.01, 37 C",0.2 nM
GGGANANNANGNGNNNGANNGNNNGGANG [26874-29_154],Kd,"[2]; MBndU at 23, other dU Tyr-dU, dC Nap-dC, SB18T0.01, 37 C",0.43 nM
GGGANANNANGNGNNNGANNGNNNGGANG [26874-29_68],Kd,"[2]; PBndU at 8, other dU Tyr-dU, dC Nap-dC, SB18T0.01, 37 C",0.21 nM
GGGANANNANGNGNNNGANNGNNNGGANG [26874-29_92],Kd,"[2]; PPdU at 10 (Table 6B says BFdU), other dU Tyr-dU, dC Nap-dC, SB18T0.01, 37 C",0.18 nM
GGGANANNANGNGNNNGANNGNNNGGANG [26874-29_110],Kd,"[2]; MOEdU at 10, other dU Tyr-dU, dC Nap-dC, SB18T0.01, 37 C",0.43 nM
ANNANGNGNNNGANNGNNNGGANGG [26874-29_23],Kd,[2]; [5],1.6 nM
NANNANGNGNNNGANNGNNNGGANGG [26874-29_22],Kd,[2]; [5],1.4 nM
GGGANANNANGNGNNNGANNGNNNGGANG [26874-29_72],Kd,"[2]; Y=Tyr-dU, p=Nap-dC, position 14 PBn-dU, Kd/Kd_20 0.33",0.14 nM
GGGANANNANGNGNNNGANNGNNNGGANG [26874-29_122],Kd,"[2]; BTdU at 14, other dU Tyr-dU, dC Nap-dC, SB18T0.01, 37 C",0.16 nM
GGGANANNANGNGNNNGANNGNNNGGANG [26874-29_85],Kd,"[2]; PEdU at 23, other dU Tyr-dU, dC Nap-dC, low plateau",0.29 nM
GGGANANHANGNGNNNGANNGNNNGGANG [26874-29_98],Kd,"[2]; ThdU at 8, other dU Tyr-dU, dC Nap-dC, SB18T0.01, 37 C",0.22 nM
GGGANANNANGNGNNNGANNGNNNGGANG [26874-29_48],Kd,"[2]; FBndU at 8, other dU Tyr-dU, dC Nap-dC, SB18T0.01, 37 C",0.26 nM
GNGNAANGNANNNNANNNGGNNNGAANGNG [26876-13_15],Kd,[2]; [5],0.26 nM
GGGANANNANGNGNNNGANNGNNNGGANG [26874-29_149],Kd,"[2]; BPEdU at 8, other dU Tyr-dU, dC Nap-dC, low plateau",0.47 nM
GGGANANNANGNGNNNGANNGNNNGGANG [26874-29_153],Kd,"[2]; Y=Tyr-dU, p=Nap-dC, position 14 BPE-dU, Kd/Kd_20 0.28",0.11 nM
GGGANANNANGNGNNNGANNGNNNGGANG [26874-29_103],Kd,"[2]; ThrdU at 14, other dU Tyr-dU, dC Nap-dC, SB18T0.01, 37 C",0.49 nM
GGGANANNANGNGNNNGANNGNNNGGANG [26874-29_117],Kd,"[2]; POPdU at 5, other dU Tyr-dU, dC Nap-dC, SB18T0.01, 37 C",0.42 nM
NANNANGNGNNNGANNGNNNGGANG [26874-29_24],Kd,[2]; [5],2.1 nM
GGGANANNANGNGNNNGANNGNNNGGANG [26874-29_130],Kd,"[2]; 2NEdU at 10, other dU Tyr-dU, dC Nap-dC, SB18T0.01, 37 C",0.28 nM
GGGANANNANGNGNNNGANNGNNNGGANG [OH-26874-29_330],Kd,"[2]; Y=Tyr-dU, p=Nap-dC, position 24 DPP-dC, protein construct inferred",0.11 nM
GGGANANNANGNGNNNGANNGNNNGGANG [26874-29_99],Kd,"[2]; ThrdU at 8, other dU Tyr-dU, dC Nap-dC, SB18T0.01, 37 C",0.24 nM
GGGANANNANGNGNNNGANNGNNNGGANG [26874-29_151],Kd,"[2]; BPEdU at 10, other dU Tyr-dU, dC Nap-dC, SB18T0.01, 37 C",0.78 nM
GGGANANNANGNGNNNGANNGNNNGGANG [OH-26874-29_331],Kd,"[2]; Y=Tyr-dU, p=Nap-dC, position 28 DPP-dC, protein construct inferred",0.13 nM
ANNANGNGNNNGANNGNNNGGANG [26874-29_25],Kd,[2]; [5],1.8 nM
GGGANANNANGNGNNNGANNGNNNGGANG [26874-29_93],Kd,"[2]; PPdU at 14, other dU Tyr-dU, dC Nap-dC, SB18T0.01, 37 C",0.24 nM
GGGANANNANGNGNNNGANNGNNNGGANG [OH-26874-29_333],Kd,"[2]; Y=Tyr-dU, p=Nap-dC, position 12 DCPE-dC, protein construct inferred",0.11 nM
GGGANANNANGNGNNNGANNGNNNGGANG [26874-29_88],Kd,"[2]; BFdU at 8, other dU Tyr-dU, dC Nap-dC, SB18T0.01, 37 C",0.19 nM
GGGANANNANGNGNNNGANNGNNNGGANG [26874-29_146],Kd,"[2]; MBndU at 5, other dU Tyr-dU, dC Nap-dC, low plateau",0.61 nM
GGANANNANGNGNNNGANNGNNNGGANG [26874-29_21],Kd,[2]; [5],2.2 nM
GGGANANNANGNGNNNGANNGNNNGGANG [26874-29_77],Kd,"[2]; Y=Tyr-dU, p=Nap-dC, position 5 PE-dU, Kd/Kd_20 0.32",0.13 nM
GGGANANNANGNGNNNGANNGNNNGGANG [OH-26874-29_182],Kd,"[2]; 2Nap-dC at 12, other dC Nap-dC, dU Tyr-dU",0.41 nM
GGGANANNANGNGNNNGANNGNNNGGANG [26874-29_121],Kd,"[2]; POPdU at 10, other dU Tyr-dU, dC Nap-dC, low plateau",0.42 nM
GGGANANNANGNGNNNGANNGNNNGGANG [26874-29_109],Kd,"[2]; 2NapdU at 8, other dU Tyr-dU, dC Nap-dC, SB18T0.01, 37 C",0.48 nM
GGGANANNANGNGNNNGANNGNNNGGANG [26874-29_128],Kd,"[2]; Y=Tyr-dU, p=Nap-dC, position 8 2NE-dU, value curated as assigned, Kd/Kd_20 1656",500 nM
GGGANANNANGNGNNNGANNGNNNGGANG [26874-29_95],Kd,"[2]; PPdU at 23, other dU Tyr-dU, dC Nap-dC, SB18T0.01, 37 C",0.42 nM
GGGANANNANGNGNNNGANNGNNNGGANG [26874-29_152],Kd,"[2]; MBndU at 14, other dU Tyr-dU, dC Nap-dC, SB18T0.01, 37 C",0.33 nM
GGGANANNANGNGNNNGANNGNNNGGANG [26874-29_147],Kd,"[2]; BPEdU at 5, other dU Tyr-dU, dC Nap-dC, assigned, low plateau",0.44 nM
GGGANANNANGNGNNNGANNGNNNGGANG [26874-29_54],Kd,"[2]; FBndU at 23, other dU Tyr-dU, dC Nap-dC, SB18T0.01, 37 C",0.21 nM
GGGANANNANGNGNNNGANNGNNNGGANG [26874-29_94],Kd,"[2]; BFdU at 23, other dU Tyr-dU, dC Nap-dC, SB18T0.01, 37 C",0.48 nM
GGGANANNANGNGNNNGANNGNNNGGANG [26874-29_144],Kd,"[2]; iBudU at 23, other dU Tyr-dU, dC Nap-dC, SB18T0.01, 37 C",0.57 nM
GGGANANNANGNGNNNGANNGNNNGGANG [26874-29_50],Kd,"[2]; FBndU at 10, other dU Tyr-dU, dC Nap-dC, SB18T0.01, 37 C",0.31 nM
GGGANANNANGNGNNNGANNGNNNGGANG [26874-29_107],Kd,"[2]; 2NapdU at 5, other dU Tyr-dU, dC Nap-dC, SB18T0.01, 37 C",0.49 nM
GGGANANNANGNGNNNGANNGNNNGGANG [26874-29_90],Kd,"[2]; Y=Tyr-dU, p=Nap-dC, position 10 BF-dU, Kd/Kd_20 0.33",0.14 nM
GGGANANNANGNGNNNGANNGNNNGGANG [26874-29_140],Kd,"[2]; iBudU at 10, other dU Tyr-dU, dC Nap-dC, SB18T0.01, 37 C",0.47 nM
GGGANANNANGNGNNNGANNGNNNGGANG [26874-29_123],Kd,"[2]; Y=Tyr-dU, p=Nap-dC, position 14 POP-dU, value curated as assigned, Kd/Kd_20 1656",500 nM
GGGANANNANGNGNNNGANNGNNNGGANG [26874-29_55],Kd,"[2]; NapdU at 23, other dU Tyr-dU, dC Nap-dC, SB18T0.01, 37 C",0.25 nM
GGGANANNANGNGNNNGANNGNNNGGANG [26874-29_114],Kd,"[2]; MOEdU at 23, other dU Tyr-dU, dC Nap-dC, SB18T0.01, 37 C",0.81 nM
GGGANANNANGNGNNNGANNGNNNGGANG [26874-29_116],Kd,"[2]; BTdU at 5, other dU Tyr-dU, dC Nap-dC, low plateau",0.53 nM
GGGANANNANGNGNNNGANNGNNNGGANG [26874-29_105],Kd,"[2]; ThrdU at 23, other dU Tyr-dU, dC Nap-dC, SB18T0.01, 37 C",0.79 nM

# Source: patent US20240218374
